Experimental data published in the nanobody polyreactivity screen of Harvey et al. (2022).

Assay: yeast display, Sf9 membrane polyspecificity reagent, FACS + sequencing; frameworks hold sequencing errors
Method in brief: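 Nanobodies came from a synthetic yeast display library in Saccharomyces cerevisiae BJ5465, induced with galactose for 36–48 hours and stained for 1 hour at 4 °C with 10% biotinylated, detergent-solubilized Sf9 membrane reagent. Cells were enriched on streptavidin microbeads and then FACS-sorted, with low and high (top ~1%) gates set on anti-HA fluorescence for expression and streptavidin fluorescence for reagent binding. Each polyreactivity label reflects the gate a clone came from. Genes were amplified by colony PCR, sequenced by MiSeq 2 × 250 and filtered by CDR length.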

Row | Sequence | polyreactivity (PSR sort gate)
1 | QDQLVESGGGLVQAGGSLRLSFAASGRIIYYNAMGWYRQAPGKERELVAAISFSDGSTYYADSVKGRFTISRDNAKKTVYLQMNSLKPEDTAVYYCAADIGYYYDYWGQGTLVTVSS | low polyreactivity
2 | QVQLVESGGGLVQAGGSLRLSCAASGRIFGCYSMGWYRPAPGKEREEVAAITWSGTSTYYADSVKGRFTISRENAKNTVYLQMNSLQPEDTAVYYCAADSLSGSAPTYYSTLEYWGQGTQVTVSS | low polyreactivity
3 | QVQLVESGGGLVQAGGSLRLSCAASGLTFDANAMGWYIQAPGKEREFVAVISWSDGGTYYADSVKGRFTISRDNAKNTVYLQLNSLKPEDTAVYYCNADFYYVYGNTRRYRYFEMEYWGQGTQVTVSS | low polyreactivity
4 | QVQLVESGGGLVQAGGSLRLSCAASGSTFAGNGMGWYRQAPGKEGELVAGIDVTGGSTYYADSVKGRFTISRDNAKKTVDLQMNSLKPEDTAVYYCYARYVYHSSFAGFDYWGQGTQVTVSS | low polyreactivity
5 | QVQLVESGGGLVQAGGSLRLSCAASGSTFYGYAMGWYRQAPGKERELVAAITRSGGSTYYADSVKGRFTISRDNAKNTVYLQMNSLKPEDSEVYYCNKYGYKGGVGYDYWGQGTEVTVSS | high polyreactivity
6 | QVQLVESGGGLVQAGGSLRLSCAASGSTFWYNAMGWYRPAPGKERELVAAITWSGGSTYYADSVKGRFTISRDNAKNTVYLQMNSLKPEDTAVYYCAADHSAYSVFSGYKYGYWGQGTQVTVSS | low polyreactivity
7 | QVQLQESGGGLVQAGVSLRLSCAASGYISIEEDISWFCQAPGKERELVASITYGAITYYADSVKGRLTISSDNAKNTVYRQMNCLKPEDTAEYYCAVSYDYQQYYVSCGQGTQVTVSS | low polyreactivity
8 | QVQLVESGGGLVLAAGSLRLSCAASGFIFGSYAMGWYRQAPGKERELFAAISRSGGRTYYADSVKGRFTISRDNAKNTVYLQMNSLKPEDTAVYYCAAVHLLVYPTYDYWGQGTQVTVSS | high polyreactivity
9 | QVQLVDSGGGLVQAGGSLRLSCAASVRIFTINAMGWYRPAPGKDRELVAAISDGGGSTYYADSVKGRFTISRYNAKNTVYLQMNSLKPEDTAVYYCARKSWPKERRVDPGYDYGGQGTQVTVSS | low polyreactivity
10 | QVQLVESGGGLVQAGGSLRLSCAASGFIFRGNAMGWYRQAPGKERELVAAISWSGGNTYYADSVKGRFTISRDNAKNTVYLQMNSLKPEDTAVYYCAAGATWSRQGSIRYNYWGQGTQVTVSS | high polyreactivity
11 | QVQLVESGGGLVQAGGSLRLSCAASGRTFGWYAMGWYRQAPGKERELVATITRGGSTYYADSVKGRFTISRDNAKNTVYLQMNSLKPEDTAVYYCNARRYLWLRRYDYWGQGTQVTVSS | high polyreactivity
12 | QVQLVESGGGLVQAGGSLRLSCAASGTFFIYAMGWYRQAPGKERELVATISTGGSTNYADSVKGRFTISRDNAKNTVYLQMNSLKPEDTAVYYFAAEWLYPHDGGYPRPMDYWGQGTQVTVSS | low polyreactivity
13 | QVQLVESGGGLVQAGGSLRLSCASSGSTFFTNAMVWYRQAPGKERELVATITWSGGTTYADSVKGRFTISRDNAKNTVYLQMNSLKPEDTAVYYCADESSSYWGDQGGALWLYDYWGQGTQVTVSS | low polyreactivity
14 | QVQLVESGGGLVQAGGSLRLSCAASGRTIDRNAMGWYRQPPGKERELVAAISGSGGRTYYADSVKGRFTISRDNEKNSVYLQMNSLKPEDTAVYYCAARVGSSPSKSKYDYWGQGTQVTVSS | high polyreactivity
15 | QVQLVESGGGLVQAGGSLRLSCAASGRTFDPYAMGWYRQAPGKERELVAAITSGDDTYYADSVKGRFTISRDNAKNTVYLQMNSLKPEDTAVYYCAADSFTPDYYSHDYWGQGTQVTVSS | low polyreactivity
16 | QVQLVESGGGLVQAGGSLRLSCAASGFTISAYAMGWYRQAPGKERQLVASISRGGITNYADSVKGRFTISRDNAKNTVYLQMTSLKPEETAVYYCAAETRNHGILYDYWGQGTQVTVSS | high polyreactivity
